Measurements published in article PMC10987633, “Structural basis for RAD18 regulation by MAGEA4 and its implications for RING ubiquitin ligase binding by MAGE family proteins” (The EMBO Journal, 2024).
Residue numbers refer to the chain shown, from its start.

T1: full-length MAGEA4 M161D (human, UniProt P43358 1-317, M161D)
T1 construct: MAGEA4, human, Uniprot P43358, full length, with M161D; source: E. coli BL21star, purified (TALON, SEC)
T1 sequence (looked up): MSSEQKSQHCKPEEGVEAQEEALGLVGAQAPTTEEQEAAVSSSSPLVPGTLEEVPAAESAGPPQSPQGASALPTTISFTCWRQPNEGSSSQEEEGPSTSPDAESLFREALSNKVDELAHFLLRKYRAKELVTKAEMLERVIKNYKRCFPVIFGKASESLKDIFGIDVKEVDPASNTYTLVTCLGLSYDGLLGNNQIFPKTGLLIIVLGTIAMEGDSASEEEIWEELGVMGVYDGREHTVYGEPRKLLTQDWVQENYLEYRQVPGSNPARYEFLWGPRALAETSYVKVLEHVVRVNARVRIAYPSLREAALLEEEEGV

B1: full-length MAGEA4 wild type (purified) (natural protein, human, UniProt P43358 1-317, looked up)
chain: T1 sequence (looked up) with D161M
notes: MAGEA4, human, Uniprot P43358, full length; Cloned into PET15C; No removal of the His tag is described; the diGly search database lists 'His-tagged MAGEA4'; also called MAGEA4 WT; FL MAGEA4; source: E. coli BL21star, purified (TALON, SEC)
B2: RAD18 R6BD peptide (residues 340-366) (peptide, UniProt Q9NS91 340-366, looked up)
peptide: SKYRKKHKSEFQLLVDQARKGYKKIAG
notes: also called 27 amino acid peptide corresponding to the RAD18 R6BD; source: synthetic peptide, bought: GenScript

Columns and labels:
Details in all cases: both partners purified
[1] = molecular target: T2, His-tagged full-length RAD18 wild type (human, UniProt Q9NS91 1-495); assay: cross-linking; XL-MS of RAD18/RAD6 incubated with 5x molar excess of full-length MAGEA4 for 1 h at 4 °C before BS3; trypsin, LC-MS/MS
T2 construct: RAD18, RING E3 ubiquitin ligase, human, Uniprot Q9NS91, residues 1-495, full length; Cloned into PET15C; Dimer in the RAD18/RAD6 complex by AUC and mass photometry; also called RAD18 WT; FL RAD18; source: E. coli BL21star; co-expressed with untagged MAGEA4, in cleared lysate (His pull-down); co-expressed with RAD6 and purified as RAD18/RAD6 (TALON, SEC); not shown: His tag, N-terminal, kept
T2 sequence (Q9NS91 whole entry, the tested form may be a part): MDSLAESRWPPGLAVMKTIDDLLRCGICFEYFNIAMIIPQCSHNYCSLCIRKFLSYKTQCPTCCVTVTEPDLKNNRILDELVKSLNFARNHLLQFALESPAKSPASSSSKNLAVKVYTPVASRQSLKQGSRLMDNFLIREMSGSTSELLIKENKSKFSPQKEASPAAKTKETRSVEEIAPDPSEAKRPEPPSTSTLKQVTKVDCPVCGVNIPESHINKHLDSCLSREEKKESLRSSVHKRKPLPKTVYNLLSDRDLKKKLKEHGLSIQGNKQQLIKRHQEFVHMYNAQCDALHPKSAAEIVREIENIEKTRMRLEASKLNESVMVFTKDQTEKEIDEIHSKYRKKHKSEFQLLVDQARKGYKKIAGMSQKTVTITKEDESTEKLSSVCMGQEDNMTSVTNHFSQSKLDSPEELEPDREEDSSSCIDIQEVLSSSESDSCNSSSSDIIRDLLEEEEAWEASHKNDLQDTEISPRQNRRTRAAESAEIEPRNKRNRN

[2] = molecular target: RAD18/RAD6 complex (purified) (human, UniProt Q9NS91 1-495; P63146 1-152, 2:1 RAD18:RAD6 asymmetric dimer as stated; Zn2+ bound (RING, zinc finger); RAD6 paralogue not given, UBE2B inferred from 2YBF); assay: mass photometry; OneMP mass photometer, SEC buffer; RAD18/RAD6, and RAD18/RAD6/MAGEA4 first cross-linked with BS3 (30 min on ice) and separated on an S200 3.2/300 column, peak fraction measured
Sequence of RAD18/RAD6 complex (purified) (Q9NS91 whole entry, chain 1 of 2): as the sequence (Q9NS91 whole entry, the tested form may be a part) above
Sequence of RAD18/RAD6 complex (purified) (B2R503 whole entry, chain 2 of 2, further chain): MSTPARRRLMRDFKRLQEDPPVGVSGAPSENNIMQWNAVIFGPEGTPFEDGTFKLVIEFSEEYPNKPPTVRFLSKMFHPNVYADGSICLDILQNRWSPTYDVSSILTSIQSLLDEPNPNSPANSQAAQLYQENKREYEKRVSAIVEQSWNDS

[3] = molecular target: RAD6 wild type (purified alone) (human, UniProt P63146 1-152, paralogue not given; UBE2B chosen because the paper's RAD6/R6BD reference structure 2YBF is UBE2B); assay: ITC; RAD18 R6BD peptide at 200 µM titrated into protein at 20 µM; MicroCal ITC200, 25 °C; SEC buffer (100 mM NaCl, 20 mM HEPES pH 7.5, 1 mM TCEP)
full-length MAGEA4 M161D = molecular target: T1, full-length MAGEA4 M161D; assay: as above
[4] = molecular target: B1; assay: as above

| binding result [1] | stoichiometry N [2] | Kd [3] [µM] | Kd (full-length MAGEA4 M161D) [µM] | Kd [4] [µM] | Binder |
| --- | --- | --- | --- | --- | --- |
| binds | 1 MAGEA4 per RAD18/RAD6 complex |  |  |  | B1 |
|  |  | 25.3 | 1.66 | 0.405 | B2 |
